Our source for the Kd values is US20230375537A1.

The term Kd denotes the concentration at which binding is half-saturated. A low value points to higher affinity.

Assay [1] concerns the target HER2 (as partner of the 'natural' / 'original' dissociation constants) (UniProt P04626). The assay can be described thus: natural dissociation constant of the bought molecule outside the sensor; method not stated.
Assay [2] shares this target. Put plainly: natural dissociation constant of the molecule outside the sensor; method not stated.

Turning to “Anti-Her2 Affibody Molecule (anti-Her2 affibody molecule, Abcam) (designed binder)”, in assay [1], the equilibrium dissociation constant (Kd) amounted to 0.032 nM.

Regarding “Z342-EGFP-Histag (a molecule having a polyhistidine tag and an anti-HER2 affibody to which a fluorescence group EGFP is fused) (designed binder)”, in assay [2], the Kd was determined as 0.106 nM.
